Assay results: patent US6416738
Blank lines part the entries; values can stand above or below the substance they belong to.

Columns and labels:
[1] = molecular target: Biotinylated NR-LU-10 (lysine); test: cell-based or functional assay
[2] = molecular target: Biotinylated NR-LU-10 (thiol); test: cell-based or functional assay
Avidin [3] = molecular target: Avidin (UniProt P02701); test: binding of radioiodinated biotinylated antibody to avidin-agarose
[4] = molecular target: NR-LU-10 antigen (approximately 40 kilodalton glycoprotein antigen expressed on most carcinomas) (human) (UniProt P16422); test: limiting antigen ELISA, percent of native NR-LU-10
[5] = molecular target: NR-LU-10 antigen on LS-180 tumor cells (human) (UniProt P16422); test: binding to LS-180 tumor cells at antigen excess, percent of native NR-LU-10
Avidin [6] = molecular target: Avidin (UniProt P02701); test: residual circulating radiolabeled antibody after avidin injection in mice, examined in vitro on immobilized biotin
[7] = molecular target: NR-LU-10 antigen (approximately 40 kilodalton glycoprotein antigen expressed on most carcinomas) (human) (UniProt P16422); test: ELISA, percent of native NR-LU-10 (thiol biotinylation)
[8] = molecular target: NR-LU-10 antigen on LS-180 tumor cells (human) (UniProt P16422); test: cell binding, percent of native NR-LU-10 (LS-180 cells as described for Table 2)
Streptavidin = Streptavidin (UniProt P22629); test: 20 ug radiolabeled protein with 400 ul streptavidin-agarose beads, spun and washed, counted
Chain of Streptavidin (P22629 37-163 limits assumed): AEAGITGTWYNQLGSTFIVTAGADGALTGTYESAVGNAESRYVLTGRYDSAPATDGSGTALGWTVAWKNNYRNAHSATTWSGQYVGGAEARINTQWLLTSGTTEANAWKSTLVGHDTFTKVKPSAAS

Chain of NR-LU-10 antigen on LS-180 tumor cells (human) (P16422 24-314): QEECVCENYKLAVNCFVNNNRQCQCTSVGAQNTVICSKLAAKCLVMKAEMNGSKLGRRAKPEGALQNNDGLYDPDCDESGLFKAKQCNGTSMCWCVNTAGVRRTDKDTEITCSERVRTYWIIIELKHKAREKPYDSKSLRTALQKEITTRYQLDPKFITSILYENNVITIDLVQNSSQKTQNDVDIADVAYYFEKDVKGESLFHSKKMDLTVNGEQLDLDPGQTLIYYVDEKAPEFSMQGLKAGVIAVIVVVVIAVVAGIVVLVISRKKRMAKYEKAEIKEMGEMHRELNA
Chain of NR-LU-10 antigen (approximately 40 kilodalton glycoprotein antigen expressed on most carcinomas) (human) (P16422 24-314): as above
Chain of Avidin (P02701 25-152 limits assumed): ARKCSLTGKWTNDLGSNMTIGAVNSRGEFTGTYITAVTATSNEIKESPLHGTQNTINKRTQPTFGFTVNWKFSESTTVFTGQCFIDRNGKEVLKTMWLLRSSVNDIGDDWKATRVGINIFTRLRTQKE

- blood pool concentration of biotinylated antibody in mice after avidin administration [1]: 10 fold
- circulating antibody level in mice after avidin administration (% of injected dose) [2]: 35
Substance: Avidin (from UniProt P02701 25-152)

- Immunoassessment (%) Cell Binding [5]: 102%
- Immunoassessment (%) ELISA, immunoreactivity as compared to native antibody [4]: 69%
Substance: Biotinylated NR-LU-10 (lysine), molar offering 13:1, measured 11.1 biotins/Ab (antibody)

- % specific binding to immobilized avidin-agarose (Avidin [3]): 98%
- % of biotinylated antibody complexed with avidin (Avidin [6]): 85%
Substance: Biotinylated NR-LU-10 (thiol) (antibody)

- Immunoassessment (%) ELISA, immunoreactivity as compared to native antibody [7]: 114%
Substance: Biotinylated NR-LU-10 (thiol), molar offering 10:1, measured 4.7 biotins/Ab (antibody)

- Immunoassessment (%) ELISA, immunoreactivity as compared to native antibody [7]: 95%
- Immunoassessment (%) Cell Binding [8]: 100%
Substance: Biotinylated NR-LU-10 (thiol), molar offering 100:1, measured 6.1 biotins/Ab (antibody)

The remaining lines, values behind:

Substance: Biotinylated NR-LU-10 (lysine) (antibody)
- % specific binding to immobilized avidin-agarose (Avidin [3]): 98%

Substance: Biotinylated NR-LU-10 (lysine), molar offering 5:1, measured 3.4 biotins/Ab (antibody)
- Immunoassessment (%) ELISA, immunoreactivity as compared to native antibody [4]: 86%

Substance: Biotinylated NR-LU-10 (lysine), molar offering 10:1, measured 8.5 biotins/Ab (antibody)
- Immunoassessment (%) Cell Binding [5]: 100%
- Immunoassessment (%) ELISA, immunoreactivity as compared to native antibody [4]: 73%

Substance: Biotinylated NR-LU-10 (lysine), molar offering 20:1, measured 13.4 biotins/Ab (antibody)
- Immunoassessment (%) Cell Binding [5]: 106%
- Immunoassessment (%) ELISA, immunoreactivity as compared to native antibody [4]: 36%

Substance: Biotinylated NR-LU-10 (lysine), molar offering 40:1, measured 23.1 biotins/Ab (antibody)
- Immunoassessment (%) ELISA, immunoreactivity as compared to native antibody [4]: 27%

Substance: Biotinylated NR-LU-10 (thiol), molar offering 50:1, measured 6.5 biotins/Ab (antibody)
- Immunoassessment (%) ELISA, immunoreactivity as compared to native antibody [7]: 102%
- Immunoassessment (%) Cell Binding [8]: 100%

Substance: Biotinylated human asialoorosomucoid (from UniProt P02763 19-201)
- % radioactivity in Pellet (bound to streptavidin-agarose) (Streptavidin): 90%
- % radioactivity in Supernatant (not bound to streptavidin-agarose) (Streptavidin): 10%

Substance: Biotinylated human orosomucoid, PIP-125-labeled (from UniProt P02763 19-201)
- % radioactivity in Pellet (bound to streptavidin-agarose) (Streptavidin): 92%
- % radioactivity in Supernatant (not bound to streptavidin-agarose) (Streptavidin): 7.7%
